In the series the target is T1, Glu-plasminogen (Calbiochem), P00747.
T1 chain: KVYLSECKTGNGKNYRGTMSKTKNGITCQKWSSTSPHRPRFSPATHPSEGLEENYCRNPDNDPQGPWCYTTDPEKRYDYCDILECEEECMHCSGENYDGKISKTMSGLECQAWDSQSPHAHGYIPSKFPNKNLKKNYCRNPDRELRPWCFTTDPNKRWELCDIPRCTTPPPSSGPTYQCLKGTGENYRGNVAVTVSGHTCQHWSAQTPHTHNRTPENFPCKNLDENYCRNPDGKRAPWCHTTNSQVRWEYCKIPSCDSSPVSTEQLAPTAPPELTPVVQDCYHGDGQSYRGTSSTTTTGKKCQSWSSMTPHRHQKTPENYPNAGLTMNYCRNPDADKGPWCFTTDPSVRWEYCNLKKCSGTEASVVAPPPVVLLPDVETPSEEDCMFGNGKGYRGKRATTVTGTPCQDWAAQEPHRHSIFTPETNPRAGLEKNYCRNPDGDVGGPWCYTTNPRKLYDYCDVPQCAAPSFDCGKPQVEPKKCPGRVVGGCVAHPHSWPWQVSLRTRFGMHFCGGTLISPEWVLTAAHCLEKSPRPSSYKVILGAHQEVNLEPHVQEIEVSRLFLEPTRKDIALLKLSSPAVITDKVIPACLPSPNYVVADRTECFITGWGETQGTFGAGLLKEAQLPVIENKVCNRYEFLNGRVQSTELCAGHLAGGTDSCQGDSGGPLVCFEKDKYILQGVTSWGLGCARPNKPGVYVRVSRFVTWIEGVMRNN

Results on one protein are retold here after patent publication US20050277575.

B1: tissue type plasminogen activator (t-PA, Calbiochem) (protein)
chain: SYQVICRDEKTQMIYQQHQSWLRPVLRSNRVEYCWCNSGRAQCHSVPVKSCSEPRCFNGGTCQQALYFSDFVCQCPEGFAGKCCEIDTRATCYEDQGISYRGTWSTAESGAECTNWNSSALAQKPYSGRRPDAIRLGLGNHNYCRNPDRDSKPWCYVFKAGKYSSEFCSTPACSEGNSDCYFGNGSAYRGTHSLTESGASCLPWNSMILIGKVYTAQNPSAQALGLGKHNYCRNPDGDAKPWCHVLKNRRLTWEYCDVPSCSTCGLRQYSQPQFRIKGGLFADIASHPWQAAIFAKHRRSPGERFLCGGILISSCWILSAAHCFQERFPPHHLTVILGRTYRVVPGEEEQKFEVEKYIVHKEFDDDTYDNDIALLQLKSDSSRCAQESSVVRTVCLPPADLQLPDWTECELSGYGKHEALSPFYSERLKEAHVRLYPSSRCTSQHLLNRTVTDNMLCAGDTRSGGPQANLHDACQGDSGGPLVCLNDGRMTLVGIISWGLGCGQKDVPGVYTKVTNYLDWIRDNMRP
Turning to B1, the Km of t-PA-mediated plasminogen conversion in the presence of S100A4 (EGTA) is 0.059 µM and the Km of t-PA-mediated plasminogen conversion, basal reaction (EGTA) is 0.429 µM.
